Measurements: US20240092918A1 (Novartis, published 2024)

Columns and labels:
Human CCR7 [1] = target: T1, Human CCR7 (human, UniProt P32248 25-378); experiment: cell-based or functional assay
T1 sequence: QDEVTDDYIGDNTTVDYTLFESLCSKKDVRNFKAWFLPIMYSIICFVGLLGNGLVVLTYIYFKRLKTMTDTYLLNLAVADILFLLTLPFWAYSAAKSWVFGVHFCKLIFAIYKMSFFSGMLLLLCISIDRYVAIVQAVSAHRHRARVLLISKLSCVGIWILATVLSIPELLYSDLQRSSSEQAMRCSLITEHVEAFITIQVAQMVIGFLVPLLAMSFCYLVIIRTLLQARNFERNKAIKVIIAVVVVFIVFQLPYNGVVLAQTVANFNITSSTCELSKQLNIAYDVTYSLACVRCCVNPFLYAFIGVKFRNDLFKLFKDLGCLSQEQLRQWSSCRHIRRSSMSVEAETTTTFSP

Human CCR7 [2] = target: T1, Human CCR7; experiment: FACS binding assay
Human CCR7 [3] = target: T1, Human CCR7; experiment: cell-based or functional assay; remark: listed apart in the source
Human CCR7 [4] = target: T1, Human CCR7; experiment: cell-based or functional assay; remark: listed apart in the source

B1: 506E15 (Humanized CysMab DAPA) (antibody, human IgG1, kappa, V domains shown)
VH: EVQLVESGGGLVKPGGSLRLSCAASGFTFSSYAMSWIRQAPGKGLEWVATISSGGSFTYYPDSVKGRFTISRDNAKNSLYLQMNSLRAEDTAVYYCARRASTVVGTDFDVWGQGTTVTVSS
VL: DIQMTQSPSSLSASVGDRVTLTCRASQDIGSSLNWLQQKPGKAIKRLIYATSSLDSGVPSRFSGSRSGTDYTLTISSLQPEDFVVYYCLQYASSPPTFGGGTKLEIKR
- pHrodo (6 h MFI), uptake of pHrodo-labelled antibody at 5 ug/ml, CD4+ T cells (2000 receptors) (Human CCR7 [1]): 429 MFI
- pHrodo (6 h MFI), uptake of pHrodo-labelled antibody at 5 ug/ml, CMLT1 cells (19583 receptors) (Human CCR7 [1]): 465 MFI
- pHrodo (6 h MFI), uptake of pHrodo-labelled antibody at 5 ug/ml, DEL cells (110685 receptors) (Human CCR7 [1]): 3060 MFI
- pHrodo (6 h MFI), uptake of pHrodo-labelled antibody at 5 ug/ml, JVM3 cells (8717 receptors) (Human CCR7 [1]): 238 MFI
- pHrodo (6 h MFI), uptake of pHrodo-labelled antibody at 5 ug/ml, Jeko-1 cells (28852 receptors) (Human CCR7 [1]): 908 MFI
- pHrodo (6 h MFI), uptake of pHrodo-labelled antibody at 5 ug/ml, KE97 cells (152093 receptors) (Human CCR7 [1]): 2720 MFI
- pHrodo (6 h MFI), uptake of pHrodo-labelled antibody at 5 ug/ml, L540 cells (167549 receptors) (Human CCR7 [1]): 16100 MFI
- pHrodo (6 h MFI), uptake of pHrodo-labelled antibody at 5 ug/ml, L1236 cells (61602 receptors) (Human CCR7 [1]): 3130 MFI
- pHrodo (6 h MFI), uptake of pHrodo-labelled antibody at 5 ug/ml, MJ cells (111121 receptors) (Human CCR7 [1]): 3870 MFI
- pHrodo (6 h MFI), uptake of pHrodo-labelled antibody at 5 ug/ml, MOTN1 cells (84200 receptors) (Human CCR7 [1]): 2900 MFI
- pHrodo (6 h MFI), uptake of pHrodo-labelled antibody at 5 ug/ml, Mec2 cells (50840 receptors) (Human CCR7 [1]): 3090 MFI

B2: 506E15.CysMab.DAPA.AURIX2 (antibody, human IgG1, kappa, V domains shown)
VH: EVQLVESGGGLVKPGGSLRLSCAASGFTFSSYAMSWIRQAPGKGLEWVATISSGGSFTYYPDSVKGRFTISRDNAKNSLYLQMNSLRAEDTAVYYCARRASTVVGTDFDVWGQGTTVTVSS
VL: DIQMTQSPSSLSASVGDRVTLTCRASQDIGSSLNWLQQKPGKAIKRLIYATSSLDSGVPSRFSGSRSGTDYTLTISSLQPEDFVVYYCLQYASSPPTFGGGTKLEIKR
modifications: AURIX2 on the engineered cysteines; DAR 3.80
notes: also called 506E15.DAPA.AURIX2
- geometric mean fluorescence intensity, difference from the unconjugated antibody (Human CCR7 [2]): ≤ 20%

B3: 506E15 humanized CysMab (Fc Wild Type) (antibody, human IgG1, V domains shown)
VH: EVQLVESGGGLVKPGGSLRLSCAASGFTFSSYAMSWIRQAPGKGLEWVATISSGGSFTYYPDSVKGRFTISRDNAKNSLYLQMNSLRAEDTAVYYCARRASTVVGTDFDVWGQGTTVTVSS
VL: DIQMTQSPSSLSASVGDRVTLTCRASQDIGSSLNWLQQKPGKAIKRLIYATSSLDSGVPSRFSGSRSGTDYTLTISSLQPEDFVVYYCLQYASSPPTFGGGTKLEIK
- ADCC activity; IC50 (nM); surrogate ADCC reporter assay, JVM2 target cells and Jurkat-V158 effector cells (Human CCR7 [3]): 0.054 nM

B4: 121G12.CysMab.DAPA.MPET.DM4 (antibody, human IgG1, kappa)
heavy: EVQLVESGGGLVKPGGSLRLSCAASGFTFSTYAMSWVRQAPGKGLEWVATISDAGSYSYYPDNVKGRFTISRDNAKNSLYLQMNSLRAEDTAVYYCARRGSRYEEYYVMDYWGQGTTVTVSSASTKGPSVFPLAPSSKSTSGGTAALGCLVKDYFPCPVTVSWNSGALTSGVHTFPAVLQSSGLYSLSSVVTVPSSSLGTQTYICNVNHKPSNTKVDKRVEPKSCDKTHTCPPCPAPELLGGPSVFLFPPKPKDTLMISRTPEVTCVVVAVSHEDPEVKFNWYVDGVEVHNAKTKPREEQYNSTYRVVSVLTVLHQDWLNGKEYKCKVSNKALAAPIEKTISKAKGQPREPQVYTLPPSREEMTKNQVSLTCLVKGFYPCDIAVEWESNGQPENNYKTTPPVLDSDGSFFLYSKLTVDKSRWQQGNVFSCSVMHEALHNHYTQKSLSLSPGK
light: EIVLTQSPATLSVSPGERVTLSCRASQSISNNLHWYQQKPGQAPRLLIKYASQSISGIPARFSGSGSGTDFTLTISSVEPEDFGVYFCQQSSSWLTFGQGTKLEIKRTVAAPSVFIFPPSDEQLKSGTASVVCLLNNFYPREAKVQWKVDNALQSGNSQESVTEQDSKDSTYSLSSTLTLSKADYEKHKVYACEVTHQGLSSPVTKSFNRGEC
modifications: MPET.DM4 linker-drug on the engineered cysteines (E152C, S375C, EU numbering); DAR 3.79
notes: also called 121G12.CysMab.DAPA.MPET.DM4 (DAR 3.8); MPET.DM4 ADC
- In vitro cytotoxic activity, IC50 (nM); DEL cells (relative receptor density 67%) (Human CCR7 [4]): 2.28 nM
- In vitro cytotoxic activity, IC50 (nM); JVM2 cells (relative receptor density 79%) (Human CCR7 [4]): 4.62 nM
- In vitro cytotoxic activity, IC50 (nM); KE97 cells (relative receptor density 100%) (Human CCR7 [4]): 2.24 nM
- In vitro cytotoxic activity, IC50 (nM); L540 cells (relative receptor density 175%) (Human CCR7 [4]): 4.9 nM
- In vitro cytotoxic activity, IC50 (nM); MOTN1 cells (relative receptor density 67%) (Human CCR7 [4]): 4.24 nM
- In vitro cytotoxic activity, IC50 (nM); Mec-2 cells (relative receptor density 15%) (Human CCR7 [4]): > 20 nM
- In vitro cytotoxic activity, IC50 (nM); OCI-Ly3 cells (relative receptor density 43%) (Human CCR7 [4]): 6.42 nM
- In vitro cytotoxic activity, IC50 (nM); PEER cells (relative receptor density 2%) (Human CCR7 [4]): > 20 nM
- In vitro cytotoxic activity, IC50 (nM); SUPHD1 cells (relative receptor density 310%) (Human CCR7 [4]): 1.69 nM
- geometric mean fluorescence intensity, difference from the unconjugated antibody (Human CCR7 [2]): ≤ 20%

B5: 121G12.DAPA.sSPDB.DM4 (antibody, human IgG1, kappa)
heavy: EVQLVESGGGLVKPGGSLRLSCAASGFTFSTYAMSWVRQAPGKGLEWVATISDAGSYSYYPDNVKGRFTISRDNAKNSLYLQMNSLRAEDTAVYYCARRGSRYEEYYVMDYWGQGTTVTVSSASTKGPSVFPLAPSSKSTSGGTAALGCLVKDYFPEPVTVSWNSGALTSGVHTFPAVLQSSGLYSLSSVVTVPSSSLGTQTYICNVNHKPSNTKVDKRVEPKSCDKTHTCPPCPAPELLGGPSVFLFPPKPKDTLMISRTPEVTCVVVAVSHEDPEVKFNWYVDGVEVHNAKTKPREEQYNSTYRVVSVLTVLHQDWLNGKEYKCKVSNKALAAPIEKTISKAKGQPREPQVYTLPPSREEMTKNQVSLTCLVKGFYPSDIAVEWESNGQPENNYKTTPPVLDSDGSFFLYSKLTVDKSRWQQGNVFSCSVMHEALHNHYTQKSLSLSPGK
light: EIVLTQSPATLSVSPGERVTLSCRASQSISNNLHWYQQKPGQAPRLLIKYASQSISGIPARFSGSGSGTDFTLTISSVEPEDFGVYFCQQSSSWLTFGQGTKLEIKRTVAAPSVFIFPPSDEQLKSGTASVVCLLNNFYPREAKVQWKVDNALQSGNSQESVTEQDSKDSTYSLSSTLTLSKADYEKHKVYACEVTHQGLSSPVTKSFNRGEC
modifications: sulfo-SPDB-DM4 on endogenous lysines, sites not defined; sulfo-SPDB-DM4 on endogenous lysines, sites not defined (DAR 3.6 as prepared; labelled DAR3.9 in the assays)
notes: also called 121G12.DAPA.sSPDB.DM4 (DAR3.9); sSPDB.DM4 ADC
- geometric mean fluorescence intensity, difference from the unconjugated antibody (Human CCR7 [2]): ≤ 20%

B6: 674J13 non-humanized CysMab (antibody, human IgG1, kappa, V domains shown)
VH: DVQLQESGPDLVKPSQSLSLTCTVTGYSITSGYSWHWIRQFPGNKLEWMAHIHSSGSTNYNPSLKSRISIIRDTSKNLFFLQLNSVTTEDTATYYCARGGVQAFAYWGQGTLVTVSA
VL: QIVLTQSPAIMSASPGEKVTMTCSASSSVIYMHWYQQKSGTSPKRWIYDTSKLASGVPARFSGSGSGTSYSLTISSMEAEDAATYYCQQWSSNPLTFGAGTTLELKR
- ADCC activity; IC50 (nM); surrogate ADCC reporter assay, JVM2 target cells and Jurkat-V158 effector cells (Human CCR7 [3]): 1.09 nM
